For this data set, the target named is purified H-ras GST fusion protein [GST: P08515].

Results on one protein are retold here after patent US6723838.

Chain of purified H-ras GST fusion protein [GST: P08515] (P08515 whole entry, looked up, the tested form may be a part): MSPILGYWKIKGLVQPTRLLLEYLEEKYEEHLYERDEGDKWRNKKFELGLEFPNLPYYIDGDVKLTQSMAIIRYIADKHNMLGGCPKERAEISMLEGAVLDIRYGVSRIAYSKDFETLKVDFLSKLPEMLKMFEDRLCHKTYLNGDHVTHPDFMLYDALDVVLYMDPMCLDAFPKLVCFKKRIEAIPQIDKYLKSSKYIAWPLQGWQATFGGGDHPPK

B1: GST fusion protein of the GAP domain (266-521) of SYNGAP (protein)
chain: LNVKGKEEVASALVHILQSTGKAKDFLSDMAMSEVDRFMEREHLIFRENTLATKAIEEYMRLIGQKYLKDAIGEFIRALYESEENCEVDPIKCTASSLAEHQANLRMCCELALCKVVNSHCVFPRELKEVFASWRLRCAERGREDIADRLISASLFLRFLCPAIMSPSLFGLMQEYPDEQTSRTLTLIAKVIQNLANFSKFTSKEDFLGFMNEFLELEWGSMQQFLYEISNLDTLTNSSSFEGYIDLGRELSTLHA
B1: the “GTPase activity of Ras ([gamma-32P]-GTP filter assay)” value is on record as “addition of the GST fusion protein of the GAP domain of SYNGAP dramatically stimulated the GTPase activity of Ras”.
